The test addresses T1, lecithin:cholesterol acyltransferase (LCAT), purified from human plasma (human, UniProt P04180 25-440).
T1 sequence (looked up): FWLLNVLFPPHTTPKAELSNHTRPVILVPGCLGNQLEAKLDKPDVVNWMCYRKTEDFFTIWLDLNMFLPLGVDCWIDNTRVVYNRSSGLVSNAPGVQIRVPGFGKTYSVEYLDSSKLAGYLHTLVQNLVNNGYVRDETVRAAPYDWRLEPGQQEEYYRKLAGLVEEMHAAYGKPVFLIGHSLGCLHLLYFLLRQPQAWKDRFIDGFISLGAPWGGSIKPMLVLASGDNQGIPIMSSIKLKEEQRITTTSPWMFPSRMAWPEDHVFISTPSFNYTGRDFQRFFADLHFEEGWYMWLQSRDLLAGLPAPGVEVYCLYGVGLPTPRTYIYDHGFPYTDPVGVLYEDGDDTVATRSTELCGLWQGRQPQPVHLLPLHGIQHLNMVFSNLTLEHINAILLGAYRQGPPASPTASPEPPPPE
As to the kind of experiment: cell-based or functional assay.

From US7211565 (ESPERION THERAPEUTICS, dated 2007) come the findings set out here.

Square brackets hold non-standard residues; d marks the D form. Ends that are not written are not given here.

B1: peptide 55 (SEQ ID NO:55) (peptide)
peptide: [dP]LFRELLNELLEALKQKLK
As to B1, the “ACTIVITY (%) LCAT” value stood at 19%.
